Laboratory results from the Immune Epitope Database (IEDB).

What was measured:
Assay in all cases: IEDB peptide-MHC binding, purified MHC/competitive/radioactivity; ≥ and ≤ were set here for values at or beyond the usual limits of such assays
[1] = biological target: HLA-A*02:01
[2] = biological target: HLA-A*02:02
[3] = biological target: HLA-A*02:03
[4] = biological target: HLA-A*02:06
[5] = biological target: HLA-A*68:02
[6] = source organism: Vaccinia virus WR
[7] = source organism: Mammarenavirus whitewaterense
[8] = source organism: Hepacivirus hominis

Sequence | IC50 [1, 6] | IC50 [2, 6] | IC50 [3, 6] | IC50 [4, 6] | IC50 [5, 6] | further results
AVIPFDDIV | 0.915 µM | 0.313 µM | 0.241 µM | 0.042 µM | 0.903 µM | 
MTSTRTIILV |  | 1.99 µM | 0.92 µM | 0.217 µM | 0.173 µM | 
FVDTMSIYI | 0.0096 µM | 0.021 µM | 0.37 µM | 0.016 µM | 0.465 µM | 
KLLYAAEMV | 0.048 µM | 0.058 µM | 0.054 µM | 0.018 µM | 2.81 µM | 
LIDFYLCFL |  |  |  |  |  | IC50 ([1]; source organism: SARS-CoV1): 0.0009 µM; IC50 ([2]; source organism: SARS-CoV1): 0.0083 µM; IC50 ([3]; source organism: SARS-CoV1): 0.061 µM; IC50 ([4]; source organism: SARS-CoV1): 0.011 µM; IC50 ([5]; source organism: SARS-CoV1): 0.093 µM
FVKENERVNV | 0.27 µM | 0.186 µM | 0.012 µM | 0.683 µM | 1.29 µM | 
KLYGYASLTT | 0.019 µM | 0.0019 µM | 0.00026 µM | 0.034 µM | 1.74 µM | 
MQVFFGYFA |  |  |  |  |  | IC50 ([1]; source organism: SARS-CoV1): 0.01 µM; IC50 ([2]; source organism: SARS-CoV1): 0.01 µM; IC50 ([3]; source organism: SARS-CoV1): 0.193 µM; IC50 ([4]; source organism: SARS-CoV1): 0.001 µM; IC50 ([5]; source organism: SARS-CoV1): 0.012 µM
TLMNVITLV |  |  |  |  |  | IC50 ([2]; source organism: SARS-CoV1): 0.00034 µM; IC50 ([3]; source organism: SARS-CoV1): 0.00025 µM; IC50 ([4]; source organism: SARS-CoV1): 0.0007 µM; IC50 ([5]; source organism: SARS-CoV1): 0.013 µM
YCNYTKFWYV |  |  |  |  |  | IC50 [1, 7]: 0.075 µM; IC50 [2, 7]: 0.322 µM; IC50 [3, 7]: 0.102 µM; IC50 [4, 7]: 0.0065 µM; IC50 [5, 7]: 0.49 µM
IISYIILFI | 0.012 µM | 0.0028 µM | 0.059 µM | 0.027 µM | 0.0057 µM | 
SIVCIVAAV | 0.0053 µM | 0.0039 µM | 0.0028 µM | 0.0035 µM | 0.00055 µM | 
FLAFVVFLLV |  |  |  |  |  | IC50 ([1]; source organism: SARS-CoV1): 0.078 µM; IC50 ([2]; source organism: SARS-CoV1): 0.0024 µM; IC50 ([3]; source organism: SARS-CoV1): 0.211 µM; IC50 ([4]; source organism: SARS-CoV1): 2.98 µM; IC50 ([5]; source organism: SARS-CoV1): 4.32 µM
RIYCSLFKNV | 0.062 µM | 0.913 µM | 0.03 µM | 0.0071 µM | 0.549 µM | 
IQYRQQLEL | 0.258 µM | 0.511 µM | 0.045 µM | 0.041 µM | 3.57 µM | 
RIASILSLET | 0.985 µM | 0.583 µM | 0.449 µM | 0.751 µM | 0.442 µM | 
TISGNIYSAL | 1.11 µM | 0.0093 µM | 0.089 µM | 2.67 µM | 0.019 µM | 
VMYASALVLL |  |  |  |  |  | IC50 ([1]; source organism: SARS-CoV1): 0.0057 µM; IC50 ([2]; source organism: SARS-CoV1): 0.00025 µM; IC50 ([3]; source organism: SARS-CoV1): 0.004 µM; IC50 ([4]; source organism: SARS-CoV1): 0.041 µM; IC50 ([5]; source organism: SARS-CoV1): 0.756 µM

Sequence | IC50 [1, 6] | IC50 [2, 6] | IC50 [3, 6] | IC50 [4, 6] | IC50 [5, 6] | further results
VMYAFTTPLI | 0.0031 µM | 0.00072 µM | 0.0048 µM | 0.012 µM | 0.132 µM | 
KTDGAVTSPL | 1.08 µM | 0.062 µM | 0.4 µM | 0.347 µM | 0.542 µM | 
IVYGRSNAI | 0.228 µM | 0.015 µM | 0.016 µM | 0.03 µM | 0.0061 µM | 
TLDAANHSI |  |  |  |  |  | IC50 ([1]; source organism: SARS-CoV1): 0.0096 µM; IC50 ([2]; source organism: SARS-CoV1): 0.092 µM; IC50 ([3]; source organism: SARS-CoV1): 0.283 µM; IC50 ([4]; source organism: SARS-CoV1): 0.029 µM; IC50 ([5]; source organism: SARS-CoV1): 1.02 µM
LMSFTILCL |  |  |  |  |  | IC50 ([1]; source organism: SARS-CoV1): 0.00014 µM; IC50 ([2]; source organism: SARS-CoV1): 0.00027 µM; IC50 ([3]; source organism: SARS-CoV1): 0.016 µM; IC50 ([4]; source organism: SARS-CoV1): 0.0018 µM; IC50 ([5]; source organism: SARS-CoV1): 0.709 µM
AILHNIYRL | 0.048 µM | 0.106 µM | 0.814 µM | 0.044 µM | 2.57 µM | 
YTLLGCWSFV |  |  |  |  |  | IC50 [1, 8]: 0.435 µM; IC50 [2, 8]: 0.555 µM; IC50 [3, 8]: 0.169 µM; IC50 [4, 8]: 0.146 µM; IC50 [5, 8]: 0.182 µM
VVHGYFTEV |  |  |  |  |  | IC50 ([1]; source organism: SARS-CoV1): 0.015 µM; IC50 ([2]; source organism: SARS-CoV1): 0.017 µM; IC50 ([3]; source organism: SARS-CoV1): 0.0033 µM; IC50 ([4]; source organism: SARS-CoV1): 0.0026 µM; IC50 ([5]; source organism: SARS-CoV1): 0.024 µM
AMLKSKNINI | 0.175 µM | 1.65 µM | 0.223 µM | 0.2 µM | 4.74 µM | 
DVSLSAYII | 1.51 µM | 0.691 µM | 0.755 µM | 4.38 µM | 0.591 µM | 
YLGIFKNNDV | 0.016 µM | 0.015 µM | 0.017 µM | 0.285 µM | 0.696 µM | 
DQLVFNSISA | 0.527 µM | 0.206 µM | 0.289 µM | 0.759 µM | 4.13 µM | 
RLWHYPCTV |  |  |  |  |  | IC50 [2, 8]: 0.165 µM; IC50 [3, 8]: 0.017 µM; IC50 [4, 8]: 0.131 µM; IC50 [5, 8]: 4.31 µM
IVCIVAAVII | 1.96 µM | 1.46 µM | 1.59 µM | 3.55 µM | 2.98 µM | 
NTISGNIYSA | 0.64 µM | 0.269 µM | 0.314 µM | 0.393 µM | 0.00019 µM | 
LMSFTILCLV |  |  |  |  |  | IC50 ([1]; source organism: SARS-CoV1): 0.0084 µM; IC50 ([2]; source organism: SARS-CoV1): 0.00034 µM; IC50 ([3]; source organism: SARS-CoV1): 0.091 µM; IC50 ([4]; source organism: SARS-CoV1): 0.04 µM; IC50 ([5]; source organism: SARS-CoV1): 0.04 µM
SIISLFYTFA | 0.205 µM | 0.111 µM | 0.028 µM | 0.094 µM | 0.051 µM | 
